The values that follow come from patent publication US20200000897A1 (published 2020).

The target of this assay is T1, HLA-A*03:01 (human).
T1 construct: MHC class I monomer first loaded with a UV-sensitive peptide that is cleaved by UV irradiation and exchanged for the test peptide; captured on streptavidin plates; also called peptide-receptive MHC molecules
The experiment in a line: UV-ligand exchange, anti-b2m ELISA; peptide exchange yield grade (>10% +, >20% ++, >50% +++, >75% ++++). In short, it runs like this: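 HLA-A*03:01 complexes were formed by UV-induced exchange of a photocleavable peptide for the test peptide. Exchange yield was measured by ELISA: streptavidin capture of 100-fold diluted monomers, HRP-anti-β2m detection, TMB read at 450 nm, quantified against HLA-A*02:01 monomer standards (15–500 ng/ml) and graded by % yield.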
A general note: In an ELISA, binding on a coated surface is turned into a signal by an enzyme label.

B1: VTAVASLLK (peptide)
peptide: VTAVASLLK
B1 had a peptide exchange yield above 75%.

B2: VVREILHAQTLK (peptide)
peptide: VVREILHAQTLK
Molecule B2 had a peptide exchange yield of 50 to 75%.

B3: SIFGLAPGK (peptide)
peptide: SIFGLAPGK
In turn, B3 registered a peptide exchange yield above 75%.

B4: KTGTFVLYKS (peptide)
peptide: KTGTFVLYKS
For B4, the peptide exchange yield lay in the range of 50 to 75%.

B5: GIFPKIMPK (peptide)
peptide: GIFPKIMPK
In turn, B5 showed a peptide exchange yield above 75%.

B6: VLLLLSLLH (peptide)
peptide: VLLLLSLLH
B6: the peptide exchange yield was 20 to 50%.

B7: RVKEIVINK (peptide)
peptide: RVKEIVINK
On to B7, for which the peptide exchange yield is 50 to 75%.

B8: KRIPFRPLAK (peptide)
peptide: KRIPFRPLAK
On to B8, for which the peptide exchange yield was in the range of 20 to 50%.

B9: IMKRQVKCITK (peptide)
peptide: IMKRQVKCITK
For the molecule B9, the peptide exchange yield was 10 to 20%.

B10: IIFVPEMNK (peptide)
peptide: IIFVPEMNK
On to B10, for which the peptide exchange yield was above 75%.

B11: GMYEYGSIEK (peptide)
peptide: GMYEYGSIEK
As for B11, the peptide exchange yield is above 75%.

B12: ITAPLMPLGK (peptide)
peptide: ITAPLMPLGK
For the molecule B12, the peptide exchange yield is above 75%.

B13: RLASVGLDAK (peptide)
peptide: RLASVGLDAK
For B13, the peptide exchange yield was above 75%.

B14: RLSAESKDLLK (peptide)
peptide: RLSAESKDLLK
The molecule B14 showed a peptide exchange yield of 50 to 75%.

B15: RVCMTVDSLVNK (peptide)
peptide: RVCMTVDSLVNK
Turning to B15, the peptide exchange yield was above 75%.

B16: HLFLPFSYK (peptide)
peptide: HLFLPFSYK
The molecule B16 yielded a peptide exchange yield above 75%.

B17: VLYRPQLEK (peptide)
peptide: VLYRPQLEK
B17: the peptide exchange yield was above 75%.

B18: QIRAELMKK (peptide)
peptide: QIRAELMKK
As to B18, the peptide exchange yield was above 75%.

B19: RLVELAGQSLLK (peptide)
peptide: RLVELAGQSLLK
For the molecule B19, the peptide exchange yield is above 75%.

B20: RTALLWGLKK (peptide)
peptide: RTALLWGLKK
The molecule B20 displayed a peptide exchange yield above 75%.

B21: HSAGIFSMY (peptide)
peptide: HSAGIFSMY
The molecule B21 returned a peptide exchange yield of 20 to 50%.

B22: IMPTFDLTK (peptide)
peptide: IMPTFDLTK
B22 came in with a peptide exchange yield of 10 to 20%.

B23: CLANYTVNK (peptide)
peptide: CLANYTVNK
In turn, B23 came in with a peptide exchange yield above 75%.

B24: HAFPPGPNY (peptide)
peptide: HAFPPGPNY
The molecule B24 yielded a peptide exchange yield of 10 to 20%.

B25: VLYELGIIGNNK (peptide)
peptide: VLYELGIIGNNK
Consider B25, for which the peptide exchange yield lay within 50 to 75%.

B26: KLLEDMVEK (peptide)
peptide: KLLEDMVEK
Consider B26, for which the peptide exchange yield was in the range of 20 to 50%.

B27: KTQFPQLK (peptide)
peptide: KTQFPQLK
B27 had a peptide exchange yield of 20 to 50%.

B28: ALCGTQLFY (peptide)
peptide: ALCGTQLFY
Turning to B28, the peptide exchange yield was above 75%.

B29: SVLSRMLVR (peptide)
peptide: SVLSRMLVR
The molecule B29 came in with a peptide exchange yield above 75%.

B30: AIGTPLIGK (peptide)
peptide: AIGTPLIGK
Regarding B30, the peptide exchange yield fell in the range of 50 to 75%.

B31: VVFPFPVNKR (peptide)
peptide: VVFPFPVNKR
In turn, B31 registered a peptide exchange yield of 50 to 75%.

B32: KGWNGQIFK (peptide)
peptide: KGWNGQIFK
B32: the peptide exchange yield lay within 50 to 75%.

B33: SSFRPLLSK (peptide)
peptide: SSFRPLLSK
Turning to B33, the peptide exchange yield was above 75%.

B34: RVLYRPQLEK (peptide)
peptide: RVLYRPQLEK
The molecule B34 registered a peptide exchange yield of 50 to 75%.

B35: VTADGALAMEK (peptide)
peptide: VTADGALAMEK
The molecule B35 came in with a peptide exchange yield of 50 to 75%.

B36: RLGAARGQLR (peptide)
peptide: RLGAARGQLR
The molecule B36 returned a peptide exchange yield of 20 to 50%.

B37: KCYEVGMMK (peptide)
peptide: KCYEVGMMK
Molecule B37 gave a peptide exchange yield above 75%.

B38: GVTITKTLK (peptide)
peptide: GVTITKTLK
Molecule B38 showed a peptide exchange yield of 50 to 75%.

B39: TVYDSIWCNMK (peptide)
peptide: TVYDSIWCNMK
For the molecule B39, the peptide exchange yield was above 75%.

B40: SLYDSEPRKK (peptide)
peptide: SLYDSEPRKK
Consider B40, for which the peptide exchange yield was above 75%.

B41: KLADSVMAGK (peptide)
peptide: KLADSVMAGK
Regarding B41, the peptide exchange yield is above 75%.

B42: TTYYPSPLNK (peptide)
peptide: TTYYPSPLNK
Take B42: the peptide exchange yield lay in the range of 50 to 75%.

B43: KQALSLVRK (peptide)
peptide: KQALSLVRK
The molecule B43 returned a peptide exchange yield of 50 to 75%.

B44: ALNDRFAGY (peptide)
peptide: ALNDRFAGY
B44: the peptide exchange yield fell in the range of 50 to 75%.

B45: RVSGSGGGGAGK (peptide)
peptide: RVSGSGGGGAGK
B45: the peptide exchange yield lay in the range of 50 to 75%.

B46: VVTGNVPLK (peptide)
peptide: VVTGNVPLK
Turning to B46, the peptide exchange yield lay in the range of 50 to 75%.

B47: AVAAVLLSR (peptide)
peptide: AVAAVLLSR
Turning to B47, the peptide exchange yield lay in the range of 50 to 75%.

B48: EVILTTKTPK (peptide)
peptide: EVILTTKTPK
Consider B48, for which the peptide exchange yield lay within 20 to 50%.

B49: HVLYPVPLESY (peptide)
peptide: HVLYPVPLESY
B49 showed a peptide exchange yield of 50 to 75%.

B50: QLYSPPSPSYR (peptide)
peptide: QLYSPPSPSYR
For B50, the peptide exchange yield was above 75%.

B51: PLPRPGAVLK (peptide)
peptide: PLPRPGAVLK
Molecule B51 yielded a peptide exchange yield of 20 to 50%.

B52: VIYVICRHK (peptide)
peptide: VIYVICRHK
Take B52: the peptide exchange yield lay within 50 to 75%.

B53: GLSTILLYH (peptide)
peptide: GLSTILLYH
For the molecule B53, the peptide exchange yield was above 75%.

B54: KARDLRTPK (peptide)
peptide: KARDLRTPK
B54 returned a peptide exchange yield of 50 to 75%.

B55: RCFSGPYLNK (peptide)
peptide: RCFSGPYLNK
Molecule B55 had a peptide exchange yield above 75%.

B56: SLFPYYNNLY (peptide)
peptide: SLFPYYNNLY
B56 yielded a peptide exchange yield of 10 to 20%.

B57: VVDDSQLPK (peptide)
peptide: VVDDSQLPK
Turning to B57, the peptide exchange yield was 20 to 50%.

B58: KGPMAGILAY (peptide)
peptide: KGPMAGILAY
B58: the peptide exchange yield is 20 to 50%.

B59: ALFGNALVFY (peptide)
peptide: ALFGNALVFY
With B59, the peptide exchange yield was above 75%.

B60: IINESLLFY (peptide)
peptide: IINESLLFY
On to B60, for which the peptide exchange yield is 50 to 75%.

B61: KLYPQCLQK (peptide)
peptide: KLYPQCLQK
As for B61, the peptide exchange yield was above 75%.

B62: FSNNHPSTPK (peptide)
peptide: FSNNHPSTPK
With B62, the peptide exchange yield lay in the range of 50 to 75%.

B63: GTHVWVGLYK (peptide)
peptide: GTHVWVGLYK
On to B63, for which the peptide exchange yield was above 75%.

B64: KINQYIIKK (peptide)
peptide: KINQYIIKK
B64 came in with a peptide exchange yield of 50 to 75%.

B65: RTIEELQNK (peptide)
peptide: RTIEELQNK
As to B65, the peptide exchange yield fell in the range of 50 to 75%.
